# In publication PMC3823645:
# Biological target: Ancylostoma ceylanicum phytochelatin synthase (Ancylostoma ceylanicum)
# Test: SEC
substance,measurement,value
Ancylostoma ceylanicum phytochelatin synthase (enzyme),stoichiometry N,2
